Where two headings read alike, the source gives them in different places.
Columns and labels:
ALPL = molecular target: T1, ALPL (Homo sapiens, UniProt P05186); type: cell-based; conditions: for fold increase in transduction by luciferase assay in cells expressing ALPL: relative to pCMV6 transfected cells, 24 hours post-transduction; for Luciferase Activity (RLU): Table 30, ALPL transfected cells
T1 construct: expressed in transfected cells; host or cells: HEK 293T
T1 sequence (P05186 whole entry, looked up): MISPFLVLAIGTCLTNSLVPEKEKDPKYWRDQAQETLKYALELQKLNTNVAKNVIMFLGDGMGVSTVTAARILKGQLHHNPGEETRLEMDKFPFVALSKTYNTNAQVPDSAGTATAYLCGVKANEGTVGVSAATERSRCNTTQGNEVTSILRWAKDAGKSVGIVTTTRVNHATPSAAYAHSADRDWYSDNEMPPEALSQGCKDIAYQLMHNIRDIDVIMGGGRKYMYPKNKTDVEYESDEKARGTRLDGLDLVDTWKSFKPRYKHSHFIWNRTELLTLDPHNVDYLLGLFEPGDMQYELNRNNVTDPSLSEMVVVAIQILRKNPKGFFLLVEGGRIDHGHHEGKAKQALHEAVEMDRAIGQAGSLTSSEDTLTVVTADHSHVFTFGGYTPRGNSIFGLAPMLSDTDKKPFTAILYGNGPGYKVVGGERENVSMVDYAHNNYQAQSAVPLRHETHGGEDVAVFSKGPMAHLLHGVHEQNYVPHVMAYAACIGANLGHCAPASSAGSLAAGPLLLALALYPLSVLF
Experimental: (§1) Briefly, a transduction assay was performed in that HEK 293T cells were transfected via calcium phosphate transfection with a plasmid expressing ALPL, an AAVR positive control, or a pCMV6 negative control (250 ng or 500 ng of plasmid). AAVR is a universal AAV entry factor involved in AAV transduction. […] At 24-hours post-transduction, GFP expression and luciferase activity were measured to quantify and observe AAV cellular transduction. […] The TTM-002, TTM-006, TTM-018, and TTM-019 capsid variants all comprised the SPH motif immediately subsequent to position 455, numbered relative to SEQ ID NO: 138 and a positive residue in one of the next three residues subsequent to the SPH motif.
To determine if the TTM-001 and TTM-002 capsid variants could bind to both the human ALPL protein (NM_000478.6, which is incorporated by reference herein) and the mouse ALPL ortholog (NM_001287172.1, which is incorporated by reference herein), HEK 293T cells were transfected via calcium phosphate transfection with a plasmid expressing human ALPL, the murine ortholog of ALPL, or a pCMV6 negative control. At 24 hours post-transfection, the HEK 293T cells expressing the ALPL receptor were transduced with an AAV particle comprising the TTM-001 capsid variant, the TTM-002 capsid variant, or an AAV9 control capsid protein, expressing a Luc2-GFP payload. At 24-hours post-transduction, luciferase activity (RLU) was measured to quantify AAV cellular transduction.

AAVR = molecular target: T2, AAVR (Homo sapiens, UniProt Q8IZA0); type: cell-based; conditions: for Luciferase Activity (fold change relative to pCMV6 transfected cells) / Luciferase Activity (RLU): AAVR transfected cells; for Fold change in luciferase activity relative to the pCMV6 control cells: Table 35, Receptor AAVR; for Luciferase Activity (RLU): Table 30
T2 construct: expressed in transfected cells; host or cells: HEK 293T
T2 sequence (Q8IZA0 whole entry, looked up): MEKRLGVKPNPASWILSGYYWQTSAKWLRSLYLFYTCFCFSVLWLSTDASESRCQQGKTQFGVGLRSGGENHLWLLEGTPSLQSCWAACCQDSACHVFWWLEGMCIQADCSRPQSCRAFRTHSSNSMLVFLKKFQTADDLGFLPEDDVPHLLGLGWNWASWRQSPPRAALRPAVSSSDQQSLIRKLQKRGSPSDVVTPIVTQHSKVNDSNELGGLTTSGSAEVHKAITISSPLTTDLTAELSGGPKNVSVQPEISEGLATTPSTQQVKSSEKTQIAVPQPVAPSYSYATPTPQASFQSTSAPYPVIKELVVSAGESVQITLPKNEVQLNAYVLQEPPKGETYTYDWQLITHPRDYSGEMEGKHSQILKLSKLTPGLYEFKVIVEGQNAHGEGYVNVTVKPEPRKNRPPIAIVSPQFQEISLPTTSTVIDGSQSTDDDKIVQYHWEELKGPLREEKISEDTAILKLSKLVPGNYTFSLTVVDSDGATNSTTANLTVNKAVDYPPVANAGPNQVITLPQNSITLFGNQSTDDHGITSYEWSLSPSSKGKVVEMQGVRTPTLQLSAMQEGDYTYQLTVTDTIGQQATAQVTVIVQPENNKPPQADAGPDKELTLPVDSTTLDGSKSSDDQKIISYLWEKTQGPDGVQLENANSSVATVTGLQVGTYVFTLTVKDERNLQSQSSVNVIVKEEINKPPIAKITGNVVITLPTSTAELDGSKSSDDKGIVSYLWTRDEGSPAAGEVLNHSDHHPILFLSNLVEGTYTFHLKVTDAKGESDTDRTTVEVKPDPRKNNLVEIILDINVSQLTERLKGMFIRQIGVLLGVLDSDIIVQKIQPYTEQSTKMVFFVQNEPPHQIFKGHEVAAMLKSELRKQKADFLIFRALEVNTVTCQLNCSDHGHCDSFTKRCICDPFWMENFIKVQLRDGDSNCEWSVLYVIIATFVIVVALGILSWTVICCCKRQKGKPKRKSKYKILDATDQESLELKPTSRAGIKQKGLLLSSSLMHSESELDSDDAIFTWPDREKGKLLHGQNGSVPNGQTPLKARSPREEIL
Experimental: as §1

Molecule: AAV9: wild-type AAV9 control capsid [reference compound]
- fold increase in transduction by luciferase assay in cells expressing ALPL (ALPL): not affected
- Luciferase Activity (fold change relative to pCMV6 transfected cells) (AAVR; Table 27): 4.3 fold
- Luciferase Activity (fold change relative to pCMV6 transfected cells) (AAVR; Table 28): 14 fold
- Fold change in luciferase activity relative to the pCMV6 control cells (AAVR): 4.9 fold

B1: TTM-001: AAV9 capsid variant comprising SPHSKA (SEQ ID NO: 941) in loop IV (protein)
chain 1: MAADGYLPDWLEDNLSEGIREWWALKPGAPQPKANQQHQDNARGLVLPGYKYLGPGNGLDKGEPVNAADAAALEHDKAYDQQLKAGDNPYLKYNHADAEFQERLKEDTSFGGNLGRAVFQAKKRLLEPLGLVEEAAKTAPGKKRPVEQSPQEPDSSAGIGKSGAQPAKKRLNFGQTGDTESVPDPQPIGEPPAAPSGVGSLTMASGGGAPVADNNEGADGVGSSSGNWHCDSQWLGDRVITTSTRTWALPTYNNHLYKQISNSTSGGSSNDNAYFGYSTPWGYFDFNRFHCHFSPRDWQRLINNNWGFRPKRLNFKLFNIQVKEVTDNNGVKTIANNLTSTVQVFTDSDYQLPYVLGSAHEGCLPPFPADVFMIPQYGYLTLNDGSQAVGRSSFYCLEYFPSQMLRTGNNFQFSYEFENVPFHSSYAHSQSLDRLMNPLIDQYLYYLSKTINGSGSPHSKAQNQQTLKFSVAGPSNMAVQGRNYIPGPSYRQQRVSTTVTQNNNSEFAWPGASSWALNGRNSLMNPGPAMASHKEGEDRFFPLSGSLIFGKQGTGRDNVDADKVMITNEEEIKTTNPVATESYGQVATNHQSAQAQAQTGWVQNQGILPGMVWQDRDVYLQGPIWAKIPHTDGNFHPSPLMGGFGMKHPPPQILIKNTPVPADPPTAFNKDKLNSFITQYSTGQVSVEIEWELQKENSKRWNPEIQYTSNYYKSNNVEFAVNTEGVYSEPRPIGTRYLTRNL
chain 2: GSGSPHSKAQNQQT
- Luciferase Activity (RLU) (ALPL): 93,268 RLU
- Luciferase Activity (fold change relative to pCMV6 transfected cells) (AAVR; Table 27): 2.4 fold
- Luciferase Activity (RLU) (AAVR): 13,981 RLU

B2: TTM-002: AAV9 capsid variant comprising HDSPHK (SEQ ID NO: 2) in loop IV (protein)
chain 1: MAADGYLPDWLEDNLSEGIREWWALKPGAPQPKANQQHQDNARGLVLPGYKYLGPGNGLDKGEPVNAADAAALEHDKAYDQQLKAGDNPYLKYNHADAEFQERLKEDTSFGGNLGRAVFQAKKRLLEPLGLVEEAAKTAPGKKRPVEQSPQEPDSSAGIGKSGAQPAKKRLNFGQTGDTESVPDPQPIGEPPAAPSGVGSLTMASGGGAPVADNNEGADGVGSSSGNWHCDSQWLGDRVITTSTRTWALPTYNNHLYKQISNSTSGGSSNDNAYFGYSTPWGYFDFNRFHCHFSPRDWQRLINNNWGFRPKRLNFKLFNIQVKEVTDNNGVKTIANNLTSTVQVFTDSDYQLPYVLGSAHEGCLPPFPADVFMIPQYGYLTLNDGSQAVGRSSFYCLEYFPSQMLRTGNNFQFSYEFENVPFHSSYAHSQSLDRLMNPLIDQYLYYLSKTINGHDSPHKSGQNQQTLKFSVAGPSNMAVQGRNYIPGPSYRQQRVSTTVTQNNNSEFAWPGASSWALNGRNSLMNPGPAMASHKEGEDRFFPLSGSLIFGKQGTGRDNVDADKVMITNEEEIKTTNPVATESYGQVATNHQSAQAQAQTGWVQNQGILPGMVWQDRDVYLQGPIWAKIPHTDGNFHPSPLMGGFGMKHPPPQILIKNTPVPADPPTAFNKDKLNSFITQYSTGQVSVEIEWELQKENSKRWNPEIQYTSNYYKSNNVEFAVNTEGVYSEPRPIGTRYLTRNL
chain 2: GHDSPHKSGQNQQT
- transduction by immunofluorescence microscopy in cells expressing ALPL (ALPL; GFP, compared to AAV9 control capsid): a significant increase in the transduction
- Luciferase Activity (RLU) (ALPL): 46,182 RLU
- fold increase in transduction by luciferase assay in cells expressing ALPL (ALPL): 45 fold
- Luciferase Activity (fold change relative to pCMV6 transfected cells) (AAVR; Table 27): 4.1 fold
- Luciferase Activity (RLU) (AAVR): 11,261 RLU
- Fold change in luciferase activity relative to the pCMV6 control cells (AAVR): 7.3 fold
- transduction in cells expressing the AAVR control (AAVR; compared with ALPL expression): did not result in the same increase in transduction

Reference: patent US20260250318A1, “COMPOSITIONS AND METHODS FOR CROSSING THE BLOOD BRAIN BARRIER” (VOYAGER THERAPEUTICS, INC., priority 2022, published 2026)
